For the assay, the target named is T1, Rb1 tumor suppressor protein (human, UniProt P06400 2-928).
T1 construct: Native protein from K562 lysate; also called pRb1; hypophosphorylated form of Rb1
T1 sequence (looked up): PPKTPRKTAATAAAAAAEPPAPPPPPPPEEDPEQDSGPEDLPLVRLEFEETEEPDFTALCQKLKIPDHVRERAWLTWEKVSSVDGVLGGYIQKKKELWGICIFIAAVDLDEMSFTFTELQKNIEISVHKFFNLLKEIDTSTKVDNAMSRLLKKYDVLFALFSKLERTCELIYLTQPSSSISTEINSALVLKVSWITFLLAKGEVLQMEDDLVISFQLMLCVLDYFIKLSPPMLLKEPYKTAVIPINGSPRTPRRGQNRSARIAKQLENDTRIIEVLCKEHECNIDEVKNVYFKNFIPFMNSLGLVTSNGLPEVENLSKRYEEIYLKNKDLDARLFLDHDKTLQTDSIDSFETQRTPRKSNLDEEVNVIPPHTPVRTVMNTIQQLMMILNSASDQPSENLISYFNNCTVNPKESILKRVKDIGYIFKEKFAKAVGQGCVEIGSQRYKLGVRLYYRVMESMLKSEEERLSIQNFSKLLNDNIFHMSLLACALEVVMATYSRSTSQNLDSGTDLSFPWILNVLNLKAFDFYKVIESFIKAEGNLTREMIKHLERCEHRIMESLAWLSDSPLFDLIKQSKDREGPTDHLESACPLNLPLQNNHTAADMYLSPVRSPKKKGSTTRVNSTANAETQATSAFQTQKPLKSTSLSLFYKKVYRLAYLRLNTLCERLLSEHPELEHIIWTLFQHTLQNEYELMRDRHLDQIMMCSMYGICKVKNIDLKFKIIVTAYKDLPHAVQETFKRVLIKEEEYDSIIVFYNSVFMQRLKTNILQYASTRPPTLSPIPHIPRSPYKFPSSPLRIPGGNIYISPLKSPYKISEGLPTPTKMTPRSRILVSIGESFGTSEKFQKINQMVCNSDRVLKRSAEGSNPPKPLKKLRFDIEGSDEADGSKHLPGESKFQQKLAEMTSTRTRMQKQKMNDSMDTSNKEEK
As to the kind of experiment: GST pull-down from K562 lysate, Western blot with anti-Rb1. An excerpt: As precipitation controls, aliquots of the K562 lysate were immunoprecipitated with anti-Rb1 antibody IF8 or normal rabbit sera. Bound proteins were separated by electrophoresis in a 7% SDS-polyacrylamide gel and transferred to a nitrocellulose membrane. An aliquot of the K-562 crude lysate was included as a positive control for Western analysis. Proteins were visualized by probing the blot with anti-Rb1 antibodies IF-8 or C15. […] Bound proteins were separated by electrophoresis in a 7% SDS-polyacrylamide gel and transferred to a nitrocellulose membrane. Proteins were visualized by probing the blot with anti-Rb1 antibodies IF8 or C15.
Glutathione S-transferase (GST)-P2P fusion proteins were expressed and recovered on glutathione-sepharose beads as described above. Whole-cell lysates of K562 cells (1 ×10^7 cells/sample) were rocked with the beads for 1 hour at 4° C. and then washed five times with NETN buffer. The beads were then boiled in 1× SDS loading buffer and the proteins separated on SDS-polyacrylamide gels and transferred to nitrocellulose membranes. Competition experiments were performed by adding an excess of the 6X-His E1a fusion protein to the cellular lysates prior to the addition of the GST-P2P fusion proteins. The Rb1 protein was visualized by immunoblotting using anti-Rb1 antibodies IF8 or C15 (Santa Cruz Biotechnology, Santa Cruz, Calif.). These antibodies were also used to immunoprecipitate native Rb1 from the cellular lysates to serve as a positive control following the manufacturers' protocol.

B1: GST-P2P (918-1095) fusion protein (other, not shown: a dimerising Fc or GST)
chain: RPRSLRKINYLIAREKNEREKRKKSVDKDFESSSMKISKVEGTEIVKPSPKRKMEGDVEKLERTPEKDKIASSTTPAKKIKLNRETGKKIGNAENASTTKEPSEKLESTSSKIKQEKVKGKAKRKVAGSEGSSSTLVDYTSTSSTGGSPVRKSEEKTDTKRTVIKTMEEYNNDNTAPA
B1: the binding result is “no binding”.

B2: GST-P2P (494-688) fusion protein (other, not shown: a dimerising Fc or GST)
chain: AQHIHALTLSPSAAHTLDLLHDHPHPPEEAEARSAMIVHMPDLMDIAHARSRSPPYRRYRSRSRSPPEFRGQSPTKRNVPREEKEREYFNRYREVPPPYDIKAYYGRSVDFRDPFEKERYREWERKYREWYEKYYKGYAVGAQPRPSANREDFSPERLLPLNIRNSPFTRGRREDYAAGQSHRNRNLGGNYPEKL
notes: also called GST-P2P (484-688)
On to B2, for which the binding result is “no binding”.

B3: GST-P2P (1-332) fusion protein (other, not shown: a dimerising Fc or GST)
chain: MMEVKDPNMKGAMLTNTGKYAIPTIDAEAYAIGKKEKPPFLPEEPSSSSEEDDPIPAELLCLICKDIMTDAVVIPCCGNSSCDECIRTTLLESDKHTCPTCHQNDVSPDALIANKFLRQAVNNFKNETGYTKRLRKQLPPFLFLVPPPRPLSQRNLQPRSRSPILRQQDPVVFRYTVSPTCSDTKTAGSCSDSGTLSRLPAPSISSLTSNQSSLAPPVSGNPSSAPAPVPDITATVSISVHSEKSDGPFRDSDNKLLPAAALTSEHSKGASSIAITALMEEKGVPGTSPWNSIFVGQSLLHGQLIPTTGPVRINAARPGGGRPGWEHSNKLG
Consider B3, for which the binding result was “no binding”.

Source of the values: patent US6368790 (UNIVERSITY OF TENNESSEE RESEARCH, dated 2002).
